Data: US20170304442A1 (SORRENTO THERAPEUTICS, published 2017)
Substitutions are numbered along the chain they refer to.

B1: WI1A5 (antibody, V domains shown)
VH: QVQLVQSGREMKKPGASMKVSCKASGYTFTKYGISWVRQAPGQGLEWMGWISADNGKTHYAQKLQGRVTMTTDTSTSTAYLELRRLRSDDTAVYFCANDGGYWGQGTLVTVSS
VL: QSVLTQPPSVSGAPGQRVTISCTGTSSNLGAGFPVYWYQQLPGKPPKVLIDGNNDRPSGVPDRVSGSKSDTSASLAITGLQAEDEADYYCLSYDSGLDGWVFGGGTKLTVL
notes: Fully human IgG; also called Wl1A5
B2: WI1E6 (antibody, V domains shown)
VH: EVQLLESGGGVVQPGRSLRLSCAASGFTFSSYGMHWVRQAPGKGLEWVAVIWYDGSNKYYADSVKGRFTISRDNSKNTLYLQMNSLRAEDTAVYYCARGSAFNIWGQGTMVTVSS
VL: QAVVTQPASVSGSPGQSITISCIGTSSDVGGYNYVSWYQQHPGKAPKLMIYDVSNRPSGVSNRFSGSKSGNTASLTISGLQAEDEADYYCSSYTTSNTFVFGTGTKVTVL
notes: Fully human IgG; also called Wl1E6
B3: WI1A6 (antibody, V domains shown)
VH: B2 VH
VL: LPVLTQPASVSGSPGQSITITCTGTSSDVGAYNYVSWYQQRPGKAPKLMIYDVSKRPSGVSNRFSGSKSGNTASLTISGLQAEDEADYYCSSYTSSSTYVVFGGGTKLTVL
notes: Fully human IgG; also called Wl1A6
B4: WI2D9 (antibody, V domains shown)
VH: EVQLVQSGAEVKRSGASVKVSCKLSGDTLTDLSIHWVRQAPGKGLEWMGGFDFEDGEIVYGDKFKGRVTVTEDPSTDTAYMDLKRLTFEDTAIYYCATIKDIPGRYYFDFWGQGTLVTVSS
VL: QSVVTQPPSVSGAPGQRVTISCTGSSSNIGAGYDVHWYQQLPGTAPKLLIYGNSNRPSGVPDRFSGSKSGTSASLAITGLQAEDEADYYCQSYDSSLSGSNWVFGGGTKLTVL
notes: Fully human IgG; also called Wl2D9
B5: WIr1B11 (antibody, V domains shown)
VH: EVQLVQSGAEVKKPGASVKVSCKASGYTFTSYDINWVRQATGQGPEWLGWLNPGSGKTGNAQNFQGRVFMTWDTSKDTAYMEMSSLRSDDTAVYYCARNLDYWGQGTLVTVSS
VL: DIVMTQTPSSLSASVGDRVTITCRASQSISSYLNWYQQKPGKAPKLLIYAASSLQSGVPSRFSGSRSGTDFTLTITNVQPEDFATYYCLQAYDFPITFGQGTKVEIK
notes: Fully human IgG; also called Wlr1B11
B6: WIr1B6 (antibody, V domains shown)
VH: QVQLVESGGGLVQPGGSLRLSCAASGFTFDDYAMHWVRQAPGKGLEWVSGISWNSGSIGYADSVKGRFTISRDNAKNSLYLQMNSLRAEDTALYYCAKVRAAAGTGGDYFDYWGQGTLVTVSS
VL: LPVLTQPRSVSGSPGQSVTISCTGSSSDVGRSNFVSWYQQYPGKAPKLMIFDVNKRPSGVPDRFSGSKSGNTASLTISGLQADDEAEYYCSSYAGTWIFGGGTQLTVL
notes: Fully human IgG; also called Wlr1B6
B7: WIr1E2 (antibody, V domains shown)
VH: QMQLVQSGAEVKEPGSSVKVSCKASGDNSYPLNWVRQAPGQGLEWMGGIIPIFGTPNYAQKFEGRVTITADESTNTAYMEISSLRFEDTAMYYCAREGDGYNYSPLDYWGQGTLVTVSS
VL: QAVLTQPPSVSKGLRQTATLTCTGDSSNVGNQGAAWLQQHPGLPPKVLSYRNNSRPSGISERLFVSRSGNSASLTITGLQPEDEADYYCSAWDSSLGAWVFGGGTQLTVL
notes: Fully human IgG; also called Wlr1E2
B8: WIrF8 (antibody, V domains shown)
VH: EVQLLESGAEVKKPGASVKVSCRVPGYSLSELSMHWVRQAPGKGLEWMGGFDPEDGETIYAQKFQGRVTMTEDTSTDTAYMELSSLRSEDTAVYYCAASGGWEVHDAFDTWGQGTMVTVSS
VL: DIVMTQSPSSLSASVGDRVTITCRASQDISYYLAWYQQKPGKAPELLIYAGSSLQSGVPSRFSGSESGTDFTLTISSLQPEDVASYYCQQYKTAPYTFGQGTKLEIK
notes: Fully human IgG; also called WlrF8
B9: WIr1G10 (antibody, V domains shown)
VH: QVQLQQSGPGLVKPSQTLSLTCAISGDTVSSNSAAWNWIRQSPSRGLEWLGGTYYRSKWYNDYAVSVKSRITINPDTSKNQFSLQLNSVTPEDTAVYYCTRSAPAAFDYWGQGTLVTVSS
VL: QSVVTQPPSVSAAPGQKVTISCSGSTSNIGNNYVSWYQQLPGTAPKLLIYDNNKRPSGIPDRFSGSKSGTSATLGITGLQTGDEADYYCGTSDTSLSIYVFGTGTKVTVL
notes: Fully human IgG; also called Wlr1G10
B10: WIr1G5 (antibody, V domains shown)
VH: QVQLVESGGGLIQPGGSLRLSCAASGFTVSSNYMSWVRQAPGKGLEWVSVIYSGGSTYYADSVKGRFTISRDNSKNTLYLQMNSLRAEDTAVYYCARFSGWNAFDIWGQGTMVTVSS
VL: DIVMTQTPSTLSASVGDRVTITCRASQSISSWLAWYQQKPGKAPKLLIYKASSLESGVPSRFSGSGSGTDFTLTISSLRPEDFATYYCQHSSTFGQGTRLEIK
notes: Fully human IgG; also called Wlr1G5
B11: WIr2A2 (antibody, V domains shown)
VH: EVQLVQSGAEVKKPGASVKVSCKVSGYTLTELSMHWVRQAPGKGLEWMGGFDPEDGETIYAQKFQGRVTMTEDTSTDTAYMELSSLRSEDTAVYYCATFMFDHDWFQLDPWGQGTLVTVSS
VL: QSALTQPPSASGTPGQRVTIACSGSSSNIGTNTVNWYQQLPGTAPKLLIYNNNQRPSGVPDRFSGSKSGTSASLAITGLQAEDEADYYCQSYDRSLSGYVFGSGTKLTVL
notes: Fully human IgG; also called Wlr2A2
B12: WIr2A6 (antibody, V domains shown)
VH: EVQLVQSGGGLVKPGGSLRLSCEASGFTVSSYYMNWIRQAPGKGLEWISSFTAEGSTYYADSVRGRFSISRDNAKNSLYLEMTRLRADDTAVYYCARDLDRRDWYGGYFDSWGQGTLVTVSS
VL: LPVLTQPPSVSGAPGQRLTISCTGSSSNIGAGYGVHWYQHLPGSAPKLLIYGNSNRPSGVTDRISGSKSGTSASLAITGLQTGDEADYYCAAWDSYLSGYVFGTGTKVTVL
notes: Fully human IgG; also called Wlr2A6
B13: WIr2A7 (antibody, V domains shown)
VH: QVQLVQSGAEVKKPGASVKVSCKVSGYTLTELSIYWVRQAPGKGLEWVGGFDPEDGETVYAQNFQGRVTMTEDTSTDTAYMELSSLRSEDTAVYYCATHTSYDKVWGRYRPSLAFDIWGQGTMVTVSS
VL: DIVMTQTPSSLSASVGDRVTITCQASQDISKYLNWYQQKPGKAPNLLIYDASNLETGVPSRFSGSGSGTDFTLTISSLQPEDIGTYYCQQDDNLPLTFGGGTKVEIK
notes: Fully human IgG; also called Wlr2A7
B14: WIr2A9 (antibody, V domains shown)
VH: QVQLVESGAEVKKPGASVKVSCKVSGYTLTELSMHWVRQAPGKGLEWMGGFDPEDGETIYAQKFQGRVTMTEDTSTDTAYMELSSLRSEDTAVYYCATGGSYYYGSGSYGSRPGYFDLWGRGTLVTVSS
VL: QSVLTQPASVSGSPGQSITISCTGTSSDVGSYNLVSWYQQHPGKAPKLMIYEGSKRPSGVPDRFSGSKSGNTASLSISGLQAEDEADYYCSSYTSSSTLVFGGGTKLTVL
notes: Fully human IgG; also called Wlr2A9
B15: WIr2B11 (antibody, V domains shown)
VH: B5 VH
VL: AIQLTQSPSTLSASVGDRVTITCRASQSISSWLAWYQQKPGKAPKLLIYATSRLQSGVPSRFSGSGSGTDFTLTINSLQPEDFATYYCQQYKSYPVTFGPGTKVDIK
notes: Fully human IgG; also called Wlr2B11
B16: WIr2B12 (antibody, V domains shown)
VH: EVQLVQSGAEVKKPGASVKVSCKASGYTFTSYYMHWVRQAPGQGLEWMGIINPSGGSTSYAQKFQGRVTMTRDTSTSTAYMELSSLRSEDTAVYYCARDIDDYGDGVWGQGTMVTVSS
VL: B9 VL with V4L, T26S, G30A, K54E, S92W, T94G, I98A, Y99G, T103G, V107L
notes: Fully human IgG; also called Wlr2B12
B17: WIr2B5 (antibody, V domains shown)
VH: EVQLVESGAEVKKPGASVKVSCKASGYTFTSYGISWVRQAPGQGLEWMGWISAYNGNTNYAQKLQGRVTMTTDTSTSTAYMELRSLRSDDTAVYYCARDWDSTSWENYYYGMDVWGQGTTVTVSS
VL: B13 VL with K31N, N45K, L73F, G84A, D91H, V104L
notes: Fully human IgG; also called Wlr2B5
B18: WIr2B8 (antibody, V domains shown)
VH: EVQLVQSGAEVKKPGSSVKVSCKASGGTFSSYAISWVRQAPGQGLEWMGGIIPIFGTANYAQKFQGRVTITADESTSTAYMELSSLRSEDTAVYYCARGQPFRDSSGYYWSYFDYWGQGTLVTVSS
VL: SYELTQPPSVSKDLRQTATLTCTGNSNNVGNQGAAWLQQHQGHPPKLLSDRNNNRPSGISERLSASRSENIASLTITGLQPEDEADYFCAAWDTSLNTFLFGGGTKLTVL
notes: Fully human IgG; also called Wlr2B8

Target: T1, recombinant human WISP1/His (human, UniProt O95388 23-367)
T1 construct: also called hWISP1; recombinant human WISP1 protein; not shown: His tag
T1 sequence (looked up): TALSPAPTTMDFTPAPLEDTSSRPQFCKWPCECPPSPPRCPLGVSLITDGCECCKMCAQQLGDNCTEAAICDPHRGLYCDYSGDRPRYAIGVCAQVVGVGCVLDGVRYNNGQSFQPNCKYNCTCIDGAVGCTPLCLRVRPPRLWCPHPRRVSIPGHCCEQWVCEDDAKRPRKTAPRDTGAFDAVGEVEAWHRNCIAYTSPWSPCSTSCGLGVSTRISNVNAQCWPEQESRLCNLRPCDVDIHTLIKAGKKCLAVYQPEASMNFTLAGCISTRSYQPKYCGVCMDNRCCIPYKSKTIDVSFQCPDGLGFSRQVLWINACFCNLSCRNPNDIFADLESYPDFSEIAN
Assay: ELISA screening

Binding result, binds:
B1, B2, B3, B4, B5, B6, B7, B8, B9, B10, B11, B12, B13, B14, B15, B16, B17, B18

Target: T2, recombinant mouse WISP1/His (mouse, UniProt O54775 23-367)
T2 construct: also called murine WISP1; mWISP1; not shown: His tag
T2 sequence (looked up): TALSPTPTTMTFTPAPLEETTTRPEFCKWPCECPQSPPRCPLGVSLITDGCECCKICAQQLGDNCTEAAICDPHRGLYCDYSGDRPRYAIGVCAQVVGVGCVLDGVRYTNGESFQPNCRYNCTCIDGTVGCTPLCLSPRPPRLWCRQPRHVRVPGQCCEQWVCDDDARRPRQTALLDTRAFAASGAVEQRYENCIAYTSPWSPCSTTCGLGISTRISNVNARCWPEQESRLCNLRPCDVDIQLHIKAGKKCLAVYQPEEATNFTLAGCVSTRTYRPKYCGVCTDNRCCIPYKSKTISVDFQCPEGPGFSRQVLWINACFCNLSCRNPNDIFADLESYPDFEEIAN
Assay: ELISA screening

Binding result, binds:
B1, B2, B3, B4, B5, B6, B7, B8, B9, B10, B11, B12, B13, B14, B15, B16, B17, B18
